Experimental data reported in US20260070940A1 (Hoffmann-La Roche, published 2026).

T1: full-length human CEA with N-terminal SNAP tag on transfected HEK293 cells (human, UniProt P06731 35-685, SNAP tag labelled with terbium)
T1 construct: whole, on cells; also called hu CEA-SNAP; CEACAM5
T1 sequence (looked up): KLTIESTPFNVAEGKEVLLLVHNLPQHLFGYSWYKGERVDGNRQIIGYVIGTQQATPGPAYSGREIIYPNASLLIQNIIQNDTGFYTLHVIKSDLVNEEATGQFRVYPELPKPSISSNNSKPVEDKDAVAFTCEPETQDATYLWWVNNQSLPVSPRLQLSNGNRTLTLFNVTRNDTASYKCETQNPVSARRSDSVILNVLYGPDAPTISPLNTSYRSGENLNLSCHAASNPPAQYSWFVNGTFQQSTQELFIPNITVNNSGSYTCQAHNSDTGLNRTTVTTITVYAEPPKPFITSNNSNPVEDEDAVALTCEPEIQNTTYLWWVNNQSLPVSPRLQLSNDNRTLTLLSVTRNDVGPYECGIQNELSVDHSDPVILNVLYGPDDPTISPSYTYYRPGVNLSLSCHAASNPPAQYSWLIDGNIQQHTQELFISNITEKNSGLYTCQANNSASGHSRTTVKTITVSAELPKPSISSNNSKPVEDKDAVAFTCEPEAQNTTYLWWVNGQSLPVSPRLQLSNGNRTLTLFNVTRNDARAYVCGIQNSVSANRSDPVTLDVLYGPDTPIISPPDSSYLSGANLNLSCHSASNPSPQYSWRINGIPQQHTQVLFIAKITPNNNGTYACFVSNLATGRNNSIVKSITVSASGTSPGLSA

B1: anti-FAP aVH P034.066 (VHH)
VHH: EVQLVESGGGLVQPGGSLRLSCAASGFNIKDTCIGWVRRAPGKEEELVANICGITGYTRYADSVKGRFTISADTSKNTAYLQMNSLRAEDTAVYYCAKSGGPKGYTYWGQGTTVTVSS
B2: anti-FAP aVH P014.087 (VHH)
VHH: EVQLVESGGGLVQPGGSLRLSCAASGFNIKDTCIGWVRRAPGKEEELVANICGHIGSTRYADSVKGRFTISADTSKNTAYLQMNSLRAEDTAVYYCANSYTYSYKYWGQGTTVTVSS
B3: anti-FAP aVH P011.064 (VHH)
VHH: EVQLVESGGGLVQPGGSLRLSCAASGFNIKDTCIGWVRRAPGKEEELVANICITDGKTRYADSVKGRFTISADTSKNTAYLQMNSLRAEDTAVYYCAYYSKYIGYRYWGQGTTVTVSS
B4: anti-FAP aVH P011.080 (VHH)
VHH: EVQLVESGGGLVQPGGSLRLSCAASGFNIKDTCIGWVRRAPGKEEELVANICQSGGYTRYADSVKGRFTISADTSKNTAYLQMNSLRAEDTAVYYCARYHKGVGYQYWGQGTTVTVSS
B5: anti-FAP aVH P012.090 (VHH)
VHH: EVQLVESGGGLVQPGGSLRLSCAASSFNIKDTYIGWVRRAPGKEEELVAKIFRCSDGRTRYADSVKGRFTISCDTSKNTAYLQMNSLRAEDTAVYYCANIYKTHYTYWGQGTTVTVSS
B6: anti-CD28 aVH P023.017 (VHH)
VHH: EVQLVESGGGLVQPGGSLRLSCAASGFNIKDTCIGWVRRAPGKEEELVARICGEYGSTRYADSVKGRFTISADTSKNTAYLQMNSLRAEDTAVYYCAAQPRYYDVYDYWGQGTTVTVSS
B7: anti-CD28 aVH P023.057 (VHH)
VHH: EVQLVESGGGLVQPGGSLRLSCAASGFNIKDTCIGWVRRAPGKEEELVAEICGRYGSTRYADSVKGRFTISADTSKNTAYLQMNSLRAEDTAVYYCAAEHRYPGQYTYWGQGTTVTVSS
B8: anti-CD28 aVH P023.001 (VHH)
VHH: EVQLVESGGGLVQPGGSLRLSCAASGFNIKDTCIGWVRRAPGKEEELVAYICPSHGYTRYADSVKGRFTISADTSKNTAYLQMNSLRAEDTAVYYCADHKNTQWGYAYWGQGTTVTVSS
B9: anti-CD28 aVH P023.039 (VHH)
VHH: EVQLVESGGGLVQPGGSLRLSCAASGFNIKDTCIGWVRRAPGKEEELVADICIKHGYTRYADSVKGRFTISADTSKNTAYLQMNSLRAEDTAVYYCADWTQSGYHYGYWGQGTTVTVSS
B10: anti-CD28 aVH P020.057 (VHH)
VHH: EVQLVESGGGLVQPGGSLRLSCAASGFNIKDTCIGWVRRAPGKEEELVAAICYTQGDTRYADSVKGRFTISADTSKNTAYLQMNSLRAEDTAVYYCAASQYDSYYTYWGQGTTVTVSS
B11: anti-CD28 aVH P020.037 (VHH)
VHH: EVQLVESGGGLVQPGGSLRLSCAASGFNIKDTCIGWVRRAPGKEEELVAAICDSGGDTRYADSVKGRFTISADTSKNTAYLQMNSLRAEDTAVYYCAASDYNSHYSYWGQGTTVTVSS
B12: anti-CD28 aVH P020.017 (VHH)
VHH: EVQLVESGGGLVQPGGSLRLSCAASGFNIKDTCIGWVRRAPGKEEELVAAICPDEGDTRYADSVKGRFTISADTSKNTAYLQMNSLRAEDTAVYYCAAAKYDDRYNYWGQGTTVTVSS
B13: anti-CD28 aVH P020.034 (VHH)
VHH: EVQLVESGGGLVQPGGSLRLSCAASGFNIKDTCIGWVRRAPGKEEELVAAICHHGGDTRYADSVKGRFTISADTSKNTAYLQMNSLRAEDTAVYYCAESQVDSYYSYWGQGTTVTVSS
B14: anti-CD28 aVH P020.023 (VHH)
VHH: EVQLVESGGGLVQPGGSLRLSCAASGFNIKDTCIGWARRAPGKEEELVAAICDYNGHTRYADSVKGRFTISADTSKNTAYLQMNSLRAEDTAVYYCAQSDYDSKYSYWGQGTTVTVSS
B15: anti-CD28 aVH P020.042 (VHH)
VHH: EVQLVESGGGLVQPGGSLRLSCAASGFNIKDTCIGWVRRAPGKEEELVAAICREAGDTRYADSVKGRFTISADTSKNTAYLQMNSLRAEDTAVYYCAAADYDSTYIYWGQGTTVTVSS
B16: anti-CD28 aVH P020.063 (VHH)
VHH: EVQLVESGGGLVQPGGSLRLSCAASGFNIKDTCIGWVRRAPGKEEELVAAICPEYGDTRYADSVKGRFTISADTSKNTAYLQMNSLRAEDTAVYYCASSDYDSAYSYWGQGTTVTVSS
B17: anti-CD28 aVH P020.027 (VHH)
VHH: EVQLVESGGGLVQPGGSLRLSCAASGFNIKDTCIGWVRRAPGKEEELVAGICRDGGDTRYADSVKGRFTISADTSKNTAYLQMNSLRAEDTAVYYCAASDYDSYYAYWGQGTTVTVSS
B18: anti-CD28 aVH P020.029 (VHH)
VHH: EVQLVESGGGLVQPGGSLRLSCAASGFNIKDTCIGWVRRAPGKEEELVAGICEAGGDTRYADSVKGRFTISADTSKNTAYLQMNSLRAEDTAVYYCAESQQGSYYSYWGQGTTVTVSS
B19: anti-CD28 aVH P020.065 (VHH)
VHH: EVQLVESGGGLVQPGGSLRLSCAASGFNIKDTCIGWVRRAPGKEEELVAGICYTYGDTRYADSVKGRFTISADTSKNTAYLQMNSLRAEDTAVYYCASSEVDSYYSYWGQGTTVTVSS
B20: anti-CD28 aVH P020.051 (VHH)
VHH: EVQLVESGGGLVQPGGSLRLSCAASGFNIKDTCIGWVRRAPGKEEELVAAICKTQGDTRYADSVKGRFTISADTSKNTAYLQMNSLRAEDTAVYYCAAANYDSPYTYWGQGTTVTVSS
B21: anti-CD28 aVH P020.077 (VHH)
VHH: EVQLVESGGGLVQPGGSLRLSCAASGFNIKDTCIGWVRRAPGKEEELVAGICQHYGDTRYADSVKGRFTISADTSKNTAYLQMNSLRAEDTAVYYCATDDWIYPGYIYWGQGTTVTVSS
B22: anti-CD28 aVH P020.035 (VHH)
VHH: EVQLVESGGGLVQPGGSLRLSCAASGFNIKDTCIGWVRRAPGKEEELVADICGDDGHTRYADSVKGRFTISADTSKNTAYLQMNSLRAEDTAVYYCAYYSGSYYEYWGQGTTVTVSS
B23: anti-CD28 aVH P019.020 (VHH)
VHH: EVQLVESGGGLVQPGGSLRLSCAASGFNIKDSSTYIGWVRRAPGKEEELVAYIYCTQGETRYADSVKGRFTISCDTSKNTAYLQMNSLRAEDTAVYYCASWGGNYPYYYWGQGTTVTVSS
B24: anti-CD28 aVH P020.010 (VHH)
VHH: EVQLVESGGGLVQPGGSLRLSCAASGFNIKDTCIGWVRRAPGKEEELVAYICEGNGYTRYADSVKGRFTISADTSKNTAYLQMNSLRAEDTAVYYCAAEGKETYYYQYWGQGTTVTVSS
B25: anti-CEA aVH P118.061 (VHH)
VHH: EVQLVESGGGLVQPGGSLRLSCAASGFNIKDTCIGWVRRAPGKEEELVANICPYHGYTRYADSVKGRFTISADTSKNTAYLQMNSLRAEDTAVYYCAIVSYVDEYYNYWGQGTTVTVSS
B26: anti-CEA aVH P127.014 (VHH)
VHH: EVQLVESGGGLVQPGGSLRLSCAASGFNIKDTCIGWVRRAPGKEEELVAAICTYKGTTRYADSVKGRFTISADTSKNTAYLQMNSLRAEDTAVYYCAIYSHYYDYYNYWGQGTTVTVSS
B27: anti-CEA aVH P127.002 (VHH)
VHH: EVQLVESGGGLVQPGGSLRLSCAASGFNIKDTCIGWVRRAPGKEEELVASICKYTGKTRYADSVKGRFTISADTSKNTAYLQMNSLRAEDTAVYYCAIVASGDGWYNYWGQGTTVTVSS
B28: anti-CEA aVH P124.021 (VHH)
VHH: EVQLVESGGGLVQPGGSLRLSCAASGFNIKDTCIGWVRRAPGKEEELVAAICPYKGYTRYADSVKGRFTISADTSKNTAYLQMNSLRAEDTAVYYCANVAYSGGHYNYWGQGTTVTVSS
B29: anti-CEA aVH P124.034 (VHH)
VHH: EVQLVESGGGLVQPGGSLRLSCAASGFNIKDTCIGWVRRAPGKEEELVAAICPYIGETRYADSVKGRFTISADTSKNTAYLQMNSLRAEDTAVYYCATVARKYNQYNYWGQGTTVTVSS

molecular target: T2, human FAP avi his, biotinylated (human, UniProt Q12884 27-759, biotin on the avi-tag); assay: SPR, bacterial supernatant;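 also: SPR at 25 °C with biotinylated human or murine FAP captured via neutravidin, aVH-containing bacterial supernatants diluted 1:3 as analyte, 600 s dissociation, blank supernatant without aVH as reference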
T2 construct: also called huFAP

| Binder | koff [s⁻¹] |
| --- | --- |
| B1 | 0.000215 |

molecular target: T3, murine FAP avi his, biotinylated (murine, UniProt P97321 27-761, biotin on the avi-tag); assay: SPR, bacterial supernatant;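 also: SPR at 25 °C with biotinylated human or murine FAP captured via neutravidin, aVH-containing bacterial supernatants diluted 1:3 as analyte, 600 s dissociation, blank supernatant without aVH as reference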
T3 construct: also called muFAP; mu FAP

| Binder | binding result | koff [s⁻¹] |
| --- | --- | --- |
| B2 | no binding | – |
| B3 | no binding | – |
| B4 | no binding | – |
| B5 | no binding | – |
| B1 | – | 0.00253 |

molecular target: T4, hu CD28-Fc (Fc-knob-avi and Fc-hole chains), biotinylated (human, biotin on the avi tag); assay: SPR, bacterial supernatant
T4 construct: also called CD28-Fc-avi

| Binder | koff [s⁻¹] |
| --- | --- |
| B6 | 0.0175 |
| B7 | 0.0777 |
| B8 | 0.0321 |
| B9 | 0.0176 |
| B10 | 0.0174 |
| B11 | 0.0131 |
| B12 | 0.0109 |
| B13 | 0.00216 |
| B14 | 0.0033 |
| B15 | 0.0144 |
| B16 | 0.018 |
| B17 | 0.00145 |
| B18 | 0.00151 |
| B19 | 0.00885 |
| B20 | 0.0135 |
| B21 | 0.0117 |
| B22 | 0.00134 |
| B23 | 0.0206 |
| B24 | 0.00068 |

molecular target: T1, full-length human CEA with N-terminal …; assay: FRET (TagLite) on hu CEA-SNAP cells

| Binder | Kd [nM] |
| --- | --- |
| B25 | 14.7 |
| B26 | 9.1 |
| B27 | 399 |
| B28 | 12.3 |
| B29 | 65.4 |
